In patent publication US20260193293A1, “PEPTIDES CAPABLE OF INHIBITING PROTEIN-PROTEIN INTERACTIONS AT GABAB1A SUBUNIT AND USES THEREOF” (UNIVERSITY OF COPENHAGEN, priority 2022, published 2026):
Each block holds one binder with its values, some of them ahead of it. Starred links: 1 amine or outer side, 2 acyl side, 3 side chain; linkers in the order of their positions; H or OH if unused. Non-standard residues stand in square brackets, D forms with d. Tyr(Bzl) = Obtyr, O-benzyl-L-tyrosine, O=C([C@H](Cc1ccc(OCc2ccccc2)cc1)N[*:1])[*:2]; Tyr(Me) = Omtyr, O-methyl-L-tyrosine, COc1ccc(C[C@H](N[*:1])C(=O)[*:2])cc1; Phe(4-tBu) = CC(C)(C)c1ccc(C[C@H](N)C(=O)O)cc1; Phe(4-NH2) = Nc1ccc(C[C@H](N)C(=O)O)cc1; Phe(4-F) = N[C@@H](Cc1ccc(F)cc1)C(=O)O; 1Nal = N[C@@H](Cc1cccc2ccccc12)C(=O)O; 2Nal = N[C@@H](Cc1ccc2ccccc2c1)C(=O)O; Cya = N[C@@H](CS(=O)(=O)O)C(=O)O; 3Pal = N[C@@H](Cc1cccnc1)C(=O)O; 4Pal = N[C@@H](Cc1ccncc1)C(=O)O

Biological target: Sushi domains (SD1/2) protein of GABAB1a (GB1a)
Sequence (Q9Z0U4 29-158): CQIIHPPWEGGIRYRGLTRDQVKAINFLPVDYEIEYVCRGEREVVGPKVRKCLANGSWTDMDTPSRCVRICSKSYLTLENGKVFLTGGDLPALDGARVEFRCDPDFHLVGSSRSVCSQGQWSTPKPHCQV
Assay: FP competition vs TAMRA AJAP-1probe

B1: EDDSDVW(Obtyr)GGADTD (peptide)
peptide: Ac-EDDSDVW[Tyr(Bzl)]GGADTD-NH2
SMILES: CC(=O)N[C@@H](CCC(=O)O)C(=O)N[C@@H](CC(=O)O)C(=O)N[C@@H](CC(=O)O)C(=O)N[C@@H](CO)C(=O)N[C@@H](CC(=O)O)C(=O)N[C@H](C(=O)N[C@@H](Cc1c[nH]c2ccccc12)C(=O)N[C@@H](Cc1ccc(OCc2ccccc2)cc1)C(=O)NCC(=O)NCC(=O)N[C@@H](C)C(=O)N[C@@H](CC(=O)O)C(=O)N[C@H](C(=O)N[C@@H](CC(=O)O)C(N)=O)[C@@H](C)O)C(C)C
- Ki: 3860 nM

B3: EDDSDVW(1Nala)GGADTD (peptide)
peptide: Ac-EDDSDVW[1Nal]GGADTD-NH2
SMILES: CC(=O)N[C@@H](CCC(=O)O)C(=O)N[C@@H](CC(=O)O)C(=O)N[C@@H](CC(=O)O)C(=O)N[C@@H](CO)C(=O)N[C@@H](CC(=O)O)C(=O)N[C@H](C(=O)N[C@@H](Cc1c[nH]c2ccccc12)C(=O)N[C@@H](Cc1cccc2ccccc12)C(=O)NCC(=O)NCC(=O)N[C@@H](C)C(=O)N[C@@H](CC(=O)O)C(=O)N[C@H](C(=O)N[C@@H](CC(=O)O)C(N)=O)[C@@H](C)O)C(C)C
- Ki: 499 nM

B5: R8-RL-17 (peptide)
peptide: Ac-RRRRRRRREAAAKEDDDWIDWGPTSDDD-NH2
- Ki: 105 nM

B6: EDDS(Aphe)… (peptide)
peptide: Ac-EDDS[Phe(4-NH2)]VWWGGADTD-NH2
- Ki: 184 nM

B8: EDDS(3Pal)… (peptide)
peptide: Ac-EDDS[3Pal]VWWGGADTD-NH2
SMILES: CC(=O)N[C@@H](CCC(=O)O)C(=O)N[C@@H](CC(=O)O)C(=O)N[C@@H](CC(=O)O)C(=O)N[C@@H](CO)C(=O)N[C@@H](Cc1cccnc1)C(=O)N[C@H](C(=O)N[C@@H](Cc1c[nH]c2ccccc12)C(=O)N[C@@H](Cc1c[nH]c2ccccc12)C(=O)NCC(=O)NCC(=O)N[C@@H](C)C(=O)N[C@@H](CC(=O)O)C(=O)N[C@H](C(=O)N[C@@H](CC(=O)O)C(N)=O)[C@@H](C)O)C(C)C
- Ki: 373 nM

B12: 17-FL-R8 (peptide)
peptide: Ac-EDDDWIDWGPTSDDDGGGGSRRRRRRRR-NH2
- Ki: 147 nM

B15: 16-FL-R8 (peptide)
peptide: Ac-EDDDWIDWYDSDDDGGGGSRRRRRRRR-NH2
- Ki: 118 nM

B16: EDDS(Omtyr)… (peptide)
peptide: Ac-EDDS[Tyr(Me)]VWWGGADTD-NH2
SMILES: COc1ccc(C[C@H](NC(=O)[C@H](CO)NC(=O)[C@H](CC(=O)O)NC(=O)[C@H](CC(=O)O)NC(=O)[C@H](CCC(=O)O)NC(C)=O)C(=O)N[C@H](C(=O)N[C@@H](Cc2c[nH]c3ccccc23)C(=O)N[C@@H](Cc2c[nH]c3ccccc23)C(=O)NCC(=O)NCC(=O)N[C@@H](C)C(=O)N[C@@H](CC(=O)O)C(=O)N[C@H](C(=O)N[C@@H](CC(=O)O)C(N)=O)[C@@H](C)O)C(C)C)cc1
- Ki: 101 nM

B19: EDDS(4Pal)… (peptide)
peptide: Ac-EDDS[4Pal]VWWGGADTD-NH2
SMILES: CC(=O)N[C@@H](CCC(=O)O)C(=O)N[C@@H](CC(=O)O)C(=O)N[C@@H](CC(=O)O)C(=O)N[C@@H](CO)C(=O)N[C@@H](Cc1ccncc1)C(=O)N[C@H](C(=O)N[C@@H](Cc1c[nH]c2ccccc12)C(=O)N[C@@H](Cc1c[nH]c2ccccc12)C(=O)NCC(=O)NCC(=O)N[C@@H](C)C(=O)N[C@@H](CC(=O)O)C(=O)N[C@H](C(=O)N[C@@H](CC(=O)O)C(N)=O)[C@@H](C)O)C(C)C
- Ki: 424 nM

B21: RRRR(2Nala)… (peptide)
peptide: Ac-RRRR[2Nal]EDSDDYDDIDDDW-NH2
SMILES: CC[C@H](C)[C@H](NC(=O)[C@H](CC(=O)O)NC(=O)[C@H](CC(=O)O)NC(=O)[C@H](Cc1ccc(O)cc1)NC(=O)[C@H](CC(=O)O)NC(=O)[C@H](CC(=O)O)NC(=O)[C@H](CO)NC(=O)[C@H](CC(=O)O)NC(=O)[C@H](CCC(=O)O)NC(=O)[C@H](Cc1ccc2ccccc2c1)NC(=O)[C@H](CCCNC(=N)N)NC(=O)[C@H](CCCNC(=N)N)NC(=O)[C@H](CCCNC(=N)N)NC(=O)[C@H](CCCNC(=N)N)NC(C)=O)C(=O)N[C@@H](CC(=O)O)C(=O)N[C@@H](CC(=O)O)C(=O)N[C@@H](CC(=O)O)C(=O)N[C@@H](Cc1c[nH]c2ccccc12)C(N)=O
- Ki: 143000 nM

B22: 17-RL-R8 (peptide)
peptide: Ac-EDDDWIDWGPTSDDDEAAAKRRRRRRRR-NH2
- Ki: 139 nM

B23: EDDS(Buphe)… (peptide)
peptide: Ac-EDDS[Phe(4-tBu)]VWWGGADTD-NH2
- Ki: 269 nM

B24: R8-FL-17 (peptide)
peptide: Ac-RRRRRRRRGGGGSEDDDWIDWGPTSDDD-NH2
- Ki: 140 nM

B29: EDDSDVW(2Nala)GGADTD (peptide)
peptide: Ac-EDDSDVW[2Nal]GGADTD-NH2
SMILES: CC(=O)N[C@@H](CCC(=O)O)C(=O)N[C@@H](CC(=O)O)C(=O)N[C@@H](CC(=O)O)C(=O)N[C@@H](CO)C(=O)N[C@@H](CC(=O)O)C(=O)N[C@H](C(=O)N[C@@H](Cc1c[nH]c2ccccc12)C(=O)N[C@@H](Cc1ccc2ccccc2c1)C(=O)NCC(=O)NCC(=O)N[C@@H](C)C(=O)N[C@@H](CC(=O)O)C(=O)N[C@H](C(=O)N[C@@H](CC(=O)O)C(N)=O)[C@@H](C)O)C(C)C
- Ki: 814 nM

B30: R8-FL-16 (peptide)
peptide: Ac-RRRRRRRRGGGGSEDDDWIDWYDSDDD-NH2
- Ki: 280 nM

B31: EDDS(Fphe)… (peptide)
peptide: Ac-EDDS[Phe(4-F)]VWWGGADTD-NH2
- Ki: 117 nM

The remaining binders from weak to strong by Ki, led by results:

- Ki: 99.5 nM
B10: 16-RL-R8 (peptide)
peptide: Ac-EDDDWIDWYDSDDDEAAAKRRRRRRRR-NH2

- Ki: 89.1 nM
B18: … (peptide)
peptide: Ac-RRRRRRREDDDWIDWYDSDDD-NH2

- Ki: 70.9 nM
B4: … (peptide)
peptide: Ac-RRRRRREDDDWIDWYDSDDD-NH2

- Ki: 69 nM
B28: EDDS(1Nala)… (peptide)
peptide: Ac-EDDS[1Nal]VWWGGADTD-NH2
SMILES: CC(=O)N[C@@H](CCC(=O)O)C(=O)N[C@@H](CC(=O)O)C(=O)N[C@@H](CC(=O)O)C(=O)N[C@@H](CO)C(=O)N[C@@H](Cc1cccc2ccccc12)C(=O)N[C@H](C(=O)N[C@@H](Cc1c[nH]c2ccccc12)C(=O)N[C@@H](Cc1c[nH]c2ccccc12)C(=O)NCC(=O)NCC(=O)N[C@@H](C)C(=O)N[C@@H](CC(=O)O)C(=O)N[C@H](C(=O)N[C@@H](CC(=O)O)C(N)=O)[C@@H](C)O)C(C)C

- Ki: 65 nM
B14: … (peptide)
peptide: Ac-RRRRRRREDDDWIDWGPTSDDD-NH2

- Ki: 43.4 nM
B26: … (peptide)
peptide: Ac-RRRRRREDDDWIDWGPTSDDD-NH2

- Ki: 39.5 nM
B9: … (peptide)
peptide: Ac-RRRRREDDDWIDWYDSDDD-NH2

- Ki: 32 nM
B2: … (peptide)
peptide: Ac-RRRRREDDDWIDWGPTSDDD-NH2

- Ki: 20.6 nM
B20: 4R-16 (peptide)
peptide: Ac-RRRREDDDWIDWYDSDDD-NH2

- Ki: 15 nM
B7: 4R-17 (peptide)
peptide: Ac-RRRREDDDWIDWGPTSDDD-NH2

- Ki: 15 nM
B25: R4-20 (peptide)
peptide: Ac-RRRREDDD[2Nal]IDWYDSDDD-NH2
SMILES: CC[C@H](C)[C@H](NC(=O)[C@H](Cc1ccc2ccccc2c1)NC(=O)[C@H](CC(=O)O)NC(=O)[C@H](CC(=O)O)NC(=O)[C@H](CC(=O)O)NC(=O)[C@H](CCC(=O)O)NC(=O)[C@H](CCCNC(=N)N)NC(=O)[C@H](CCCNC(=N)N)NC(=O)[C@H](CCCNC(=N)N)NC(=O)[C@H](CCCNC(=N)N)NC(C)=O)C(=O)N[C@@H](CC(=O)O)C(=O)N[C@@H](Cc1c[nH]c2ccccc12)C(=O)N[C@@H](Cc1ccc(O)cc1)C(=O)N[C@@H](CC(=O)O)C(=O)N[C@@H](CO)C(=O)N[C@@H](CC(=O)O)C(=O)N[C@@H](CC(=O)O)C(=O)N[C@@H](CC(=O)O)C(N)=O

- Ki: 13 nM
B17: R4-21 (peptide)
peptide: Ac-RRRREDDD[2Nal]IDWGPTSDDD-NH2
SMILES: CC[C@H](C)[C@H](NC(=O)[C@H](Cc1ccc2ccccc2c1)NC(=O)[C@H](CC(=O)O)NC(=O)[C@H](CC(=O)O)NC(=O)[C@H](CC(=O)O)NC(=O)[C@H](CCC(=O)O)NC(=O)[C@H](CCCNC(=N)N)NC(=O)[C@H](CCCNC(=N)N)NC(=O)[C@H](CCCNC(=N)N)NC(=O)[C@H](CCCNC(=N)N)NC(C)=O)C(=O)N[C@@H](CC(=O)O)C(=O)N[C@@H](Cc1c[nH]c2ccccc12)C(=O)NCC(=O)N1CCC[C@H]1C(=O)N[C@H](C(=O)N[C@@H](CO)C(=O)N[C@@H](CC(=O)O)C(=O)N[C@@H](CC(=O)O)C(=O)N[C@@H](CC(=O)O)C(N)=O)[C@@H](C)O

- Ki: 12 nM
B11: ETEFI(Cya)WGPTGDED (peptide)
peptide: Ac-ETEFI[Cya]WGPTGDED-NH2
SMILES: CC[C@H](C)[C@H](NC(=O)[C@H](Cc1ccccc1)NC(=O)[C@H](CCC(=O)O)NC(=O)[C@@H](NC(=O)[C@H](CCC(=O)O)NC(C)=O)[C@@H](C)O)C(=O)N[C@@H](CS(=O)(=O)O)C(=O)N[C@@H](Cc1c[nH]c2ccccc12)C(=O)NCC(=O)N1CCC[C@H]1C(=O)N[C@H](C(=O)NCC(=O)N[C@@H](CC(=O)O)C(=O)N[C@@H](CCC(=O)O)C(=O)N[C@@H](CC(=O)O)C(N)=O)[C@@H](C)O

- Ki: 9 nM
B27: R3-17 (peptide)
peptide: Ac-RRREDDDWIDWGPTSDDD-NH2

- Ki: 6.4 nM
B13: R3-16 (peptide)
peptide: Ac-RRREDDDWIDWYDSDDD-NH2
